B1: GpH7-A5/GpH7-B3 variant P271_12R/GpL16-k0 (He Ab) (antibody, human IgG1, kappa)
heavy 1: not shown
heavy 2: not shown
light: DIVMTQSPLSLPVTPGEPASISCQASESLVHSNRNTYLHWYLQKPGQSPQLLIYKVSNRFSGVPDRFSGSGSGTDFTLKISRVEAEDVGVYYCSQNTHVPPTFGQGTKVEIERTVAAPSVFIFPPSDEQLKSGTASVVCLLNNFYPREAKVQWKVDNALQSGNSQESVTEQDSKDSTYSLSSTLTLSKADYEKHKVYACEVTHQGLSSPVTKSFNRGEC
notes: He Ab: alteration only in the GpH7-B3 chain
B2: GpH7-A5/GpH7-B3 variant S298_07I/GpL16-k0 (He Ab) (antibody, human IgG1, kappa)
heavy 1: not shown
heavy 2: not shown
light: B1 light
notes: as for B1
B3: GpH7-A5/GpH7-B3 variant Q295_04F/GpL16-k0 (He Ab) (antibody, human IgG1, kappa)
heavy 1: not shown
heavy 2: not shown
light: B1 light
notes: as for B1
B4: GpH7-A5/GpH7-B3 variant S337_03V/GpL16-k0 (He Ab) (antibody, human IgG1, kappa)
heavy 1: not shown
heavy 2: not shown
light: B1 light
notes: as for B1
B5: GpH7-A5/GpH7-B3 variant E269_06M/GpL16-k0 (He Ab) (antibody, human IgG1, kappa)
heavy 1: not shown
heavy 2: not shown
light: B1 light
notes: as for B1
B6: GpH7-A5/GpH7-B3 variant I336_06M/GpL16-k0 (He Ab) (antibody, human IgG1, kappa)
heavy 1: not shown
heavy 2: not shown
light: B1 light
notes: as for B1
B7: GpH7-A5/GpH7-B3 variant I336_01G/GpL16-k0 (He Ab) (antibody, human IgG1, kappa)
heavy 1: not shown
heavy 2: not shown
light: B1 light
notes: as for B1
B8: GpH7-A5/GpH7-B3 variant E333_01G/GpL16-k0 (He Ab) (antibody, human IgG1, kappa)
heavy 1: not shown
heavy 2: not shown
light: B1 light
notes: as for B1
B9: GpH7-A5/GpH7-B3 variant K326_14T/GpL16-k0 (He Ab) (antibody, human IgG1, kappa)
heavy 1: not shown
heavy 2: not shown
light: B1 light
notes: as for B1
B10: GpH7-A5/GpH7-B3 variant S298_08L/GpL16-k0 (He Ab) (antibody, human IgG1, kappa)
heavy 1: not shown
heavy 2: not shown
light: B1 light
notes: as for B1
B11: GpH7-A5/GpH7-B3 variant S239_01G/GpL16-k0 (He Ab) (antibody, human IgG1, kappa)
heavy 1: not shown
heavy 2: not shown
light: B1 light
notes: as for B1
B12: GpH7-A5/GpH7-B3 variant P271_20W/GpL16-k0 (He Ab) (antibody, human IgG1, kappa)
heavy 1: not shown
heavy 2: not shown
light: B1 light
notes: as for B1
B13: GpH7-A5/GpH7-B3 variant S267_01G/GpL16-k0 (He Ab) (antibody, human IgG1, kappa)
heavy 1: not shown
heavy 2: not shown
light: B1 light
notes: as for B1
B14: GpH7-A5/GpH7-B3 variant I336_04F/GpL16-k0 (He Ab) (antibody, human IgG1, kappa)
heavy 1: not shown
heavy 2: not shown
light: B1 light
notes: as for B1
B15: GpH7-A5/GpH7-B3 variant S298_19Q/GpL16-k0 (He Ab) (antibody, human IgG1, kappa)
heavy 1: not shown
heavy 2: not shown
light: B1 light
notes: as for B1
B16: GpH7-A5/GpH7-B3 variant E269_04F/GpL16-k0 (He Ab) (antibody, human IgG1, kappa)
heavy 1: not shown
heavy 2: not shown
light: B1 light
notes: as for B1
B17: GpH7-A5/GpH7-B3 variant P271_04F/GpL16-k0 (He Ab) (antibody, human IgG1, kappa)
heavy 1: not shown
heavy 2: not shown
light: B1 light
notes: as for B1
B18: GpH7-A5/GpH7-B3 variant S324_08L/GpL16-k0 (He Ab) (antibody, human IgG1, kappa)
heavy 1: not shown
heavy 2: not shown
light: B1 light
notes: as for B1
B19: GpH7-A5/GpH7-B3 variant G236_20W/GpL16-k0 (He Ab) (antibody, human IgG1, kappa)
heavy 1: not shown
heavy 2: not shown
light: B1 light
notes: He Ab: alteration only in the GpH7-B3 chain; also called GpH7-A5/GpH7-B3-03-20W/GpL16-k0
B20: GpH7-A5/GpH7-B3 variant Q295_18N/GpL16-k0 (He Ab) (antibody, human IgG1, kappa)
heavy 1: not shown
heavy 2: not shown
light: B1 light
notes: as for B1
B21: GpH7-A5/GpH7-B3 variant S267_02A/GpL16-k0 (He Ab) (antibody, human IgG1, kappa)
heavy 1: not shown
heavy 2: not shown
light: B1 light
notes: as for B1
B22: GpH7-A5/GpH7-B3 variant Q295_07I/GpL16-k0 (He Ab) (antibody, human IgG1, kappa)
heavy 1: not shown
heavy 2: not shown
light: B1 light
notes: as for B1
B23: GpH7-A5/GpH7-B3 variant S337_02A/GpL16-k0 (He Ab) (antibody, human IgG1, kappa)
heavy 1: not shown
heavy 2: not shown
light: B1 light
notes: as for B1
B24: GpH7-A5/GpH7-B3 variant Q295_03V/GpL16-k0 (He Ab) (antibody, human IgG1, kappa)
heavy 1: not shown
heavy 2: not shown
light: B1 light
notes: as for B1
B25: GpH7-A5/GpH7-B3 variant Q295_14T/GpL16-k0 (He Ab) (antibody, human IgG1, kappa)
heavy 1: not shown
heavy 2: not shown
light: B1 light
notes: as for B1
B26: GpH7-A5/GpH7-B3 variant E269_15Y/GpL16-k0 (He Ab) (antibody, human IgG1, kappa)
heavy 1: not shown
heavy 2: not shown
light: B1 light
notes: as for B1
B27: GpH7-A5/GpH7-B3 variant S324_19Q/GpL16-k0 (He Ab) (antibody, human IgG1, kappa)
heavy 1: not shown
heavy 2: not shown
light: B1 light
notes: as for B1
B28: GpH7-A5/GpH7-B3 variant S324_03V/GpL16-k0 (He Ab) (antibody, human IgG1, kappa)
heavy 1: not shown
heavy 2: not shown
light: B1 light
notes: as for B1
B29: GpH7-A5/GpH7-B3 variant Q295_13S/GpL16-k0 (He Ab) (antibody, human IgG1, kappa)
heavy 1: not shown
heavy 2: not shown
light: B1 light
notes: as for B1
B30: GpH7-A5/GpH7-B3 variant P271_06M/GpL16-k0 (He Ab) (antibody, human IgG1, kappa)
heavy 1: not shown
heavy 2: not shown
light: B1 light
notes: as for B1

Target: T1, FcγRIa extracellular domain with C-terminal His tag (human, UniProt P12314 16-292)
T1 construct: extracellular domain; Expressed in FreeStyle293 cells; analyte in Biacore; also called FcgRI; FcgRIa
Assay: SPR Biacore, antibody captured, FcγRIa analyte; vs GpH7-A5/GpH7-B3/GpL16-k0 = 100

T1 sequence (P12314 16-292): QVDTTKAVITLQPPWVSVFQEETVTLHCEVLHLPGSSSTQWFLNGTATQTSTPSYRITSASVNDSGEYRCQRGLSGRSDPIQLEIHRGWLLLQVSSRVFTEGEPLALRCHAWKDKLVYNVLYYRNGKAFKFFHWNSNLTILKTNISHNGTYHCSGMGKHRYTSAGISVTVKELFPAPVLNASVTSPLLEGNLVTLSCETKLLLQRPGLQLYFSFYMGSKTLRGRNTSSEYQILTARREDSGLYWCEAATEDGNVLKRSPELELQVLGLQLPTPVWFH

| Binder | He/Con_1a |
| --- | --- |
| B1 | 102 relative (control = 100) |
| B2 | 107 relative (control = 100) |
| B3 | 102 relative (control = 100) |
| B4 | 107 relative (control = 100) |
| B5 | 104 relative (control = 100) |
| B6 | 108 relative (control = 100) |
| B7 | 109 relative (control = 100) |
| B8 | 103 relative (control = 100) |
| B9 | 104 relative (control = 100) |
| B10 | 107 relative (control = 100) |
| B11 | 101 relative (control = 100) |
| B12 | 103 relative (control = 100) |
| B13 | 103 relative (control = 100) |
| B14 | 106 relative (control = 100) |
| B15 | 109 relative (control = 100) |
| B16 | 103 relative (control = 100) |
| B17 | 102 relative (control = 100) |
| B18 | 103 relative (control = 100) |
| B19 | 105 relative (control = 100) |
| B20 | 102 relative (control = 100) |
| B21 | 109 relative (control = 100) |
| B22 | 103 relative (control = 100) |
| B23 | 106 relative (control = 100) |
| B24 | 104 relative (control = 100) |
| B25 | 103 relative (control = 100) |
| B26 | 106 relative (control = 100) |
| B27 | 112 relative (control = 100) |
| B28 | 104 relative (control = 100) |
| B29 | 102 relative (control = 100) |
| B30 | 102 relative (control = 100) |

Source: patent US20180155451A1 (published 2018)
